Data published in PMC8251270 (2021).

Target: recombinant receptor‐binding motif (RBM) of SARS‐CoV‐2 spike (S) protein, residue 437–508 (SARS-CoV-2, UniProt P0DTC2 437-508)
Test: SPR

B1: mAb8 (antibody, V domains shown)
VH: DVKLVESGGGLVKLGGSLKLSCAASGFTFSTDYMSWVRQSPEKRLELVAAINSNGGTTYYPDTVKGRFIISRDNAKNTLYLQMSSLRSEDTALYYCARQVKNGLDYWGQGTSVTVSS
VL: DIQMTQTTSSLSASLGDRVTISCRASQDISNYLNWYQQKPDGTVKLLIYKTSRLHSGVPSRFRGSGSGTDYSLTISNLEEEDVATYFCQQGNTLPPTFGGGTKLEIK
With B1 the Kd was 57.4 nM.
